These substances were tested against HLA-A*02:01 (Homo sapiens, UniProt P04439, D140Y/D185E/D98H/E176V/E277Q/G131W/G231S/I119V/I121R/I166T/I218V/L300P/L318F/N151K/N90K/P208A/P217A/Q86G/Q94H/R138H/R169H/T345S) (assay: MHC binding assay (UV-ligand exchange, β2m ELISA, peptide exchange yield)). Conditions: binding of HLA-class I restricted peptides to HLA-A*02:01, UV-ligand exchange.
Method in brief: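 Peptide-MHC complexes formed by UV-ligand exchange, cleaving a UV-sensitive placeholder peptide in favour of the test peptide. Exchange yield measured by ELISA: monomers diluted 100-fold onto streptavidin-coated plates, 1 h 37 °C, detected with 2 ug/ml HRP anti-β2m and TMB, absorbance at 450 nm.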

Q: “160 (FLFDEEIEQI; listed as Homo sapiens) [compound 160]” was tested. Which “Peptide exchange (MHC class I binding score, peptide exchange yield)” value (shortened to “Peptide exchange”) did it give?
A: The value was ““+++” (≥50 = +++)”.

Q: How did the “Peptide exchange” value turn out when “252 (LLIGTDVSL; listed as Homo sapiens) [compound 252]” was run?
A: Its value is ““+++” (≥50 = +++)”.

Q: “340 (ALLSMTFPL; listed as Homo sapiens) [compound 340]” was tested. Which “Peptide exchange” value did it give?
A: Its value is ““++++” (≥75% = ++++)”.

Q: With “593 (GLPRFGIEMV; listed as Homo sapiens) [compound 593]” as the substance, how does the “Peptide exchange” value read?
A: Its value is ““+++” (≥50 = +++)”.

Q: For “599 (YLLNDASLISV; listed as Homo sapiens) [compound 599]”, which “Peptide exchange” value is on record?
A: The value was ““+++” (≥50 = +++)”.

Q: How did the “Peptide exchange” value turn out when “509 (FLFDTKPLIV; listed as Homo sapiens) [compound 509]” was run?
A: Its value is ““+++” (≥50 = +++)”.

Q: For “265 (LLFGGTKTV; listed as Homo sapiens) [compound 265]”, which “Peptide exchange” value is on record?
A: The value was ““++” (≥20% = ++)”.

Q: “595 (VLLSIYPRV; listed as Homo sapiens) [compound 595]” was tested. Which “Peptide exchange” value did it give?
A: Its value is ““+++” (≥50 = +++)”.

Q: “110 (FLSQVDFEL; listed as Homo sapiens) [compound 110]” was tested. Which “Peptide exchange” value did it give?
A: The value was ““+++” (≥50 = +++)”.

Q: With “309 (GLFDGVPTTA; listed as Homo sapiens) [compound 309]” as the substance, how does the “Peptide exchange” value read?
A: Its value is ““+++” (≥50 = +++)”.

Q: For “564 (TVTNAVVTV; listed as Homo sapiens) [compound 564]”, which “Peptide exchange” value is on record?
A: The value was ““+++” (≥50 = +++)”.

Q: “367 (SLQNHNHQL; listed as Homo sapiens) [compound 367]” was tested. Which “Peptide exchange” value did it give?
A: The value was ““+++” (≥50 = +++)”.

Q: With “93 (LLQAIKLYL; listed as Homo sapiens) [compound 93]” as the substance, how does the “Peptide exchange” value read?
A: The value was ““++” (≥20% = ++)”.

Q: With “545 (LLADLLHNV; listed as Homo sapiens) [compound 545]” as the substance, how does the “Peptide exchange” value read?
A: The value was ““+++” (≥50 = +++)”.

Q: Which “Peptide exchange” value does the source give for “559 (VTVPPGPSL; listed as Homo sapiens) [compound 559]” here?
A: Its value is ““++” (≥20% = ++)”.

Q: With “163 (ALDEMGDLLQL; listed as Homo sapiens) [compound 163]” as the substance, how does the “Peptide exchange” value read?
A: The value was ““+++” (≥50 = +++)”.

Q: Which “Peptide exchange” value does the source give for “515 (LLQELVLFL; listed as Homo sapiens) [compound 515]” here?
A: Its value is ““+++” (≥50 = +++)”.

Q: “207 (GLTSTNAEV; listed as Homo sapiens) [compound 207]” was tested. Which “Peptide exchange” value did it give?
A: Its value is ““++” (≥20% = ++)”.

Q: With “437 (SMAPGLVIQAV; listed as Homo sapiens) [compound 437]” as the substance, how does the “Peptide exchange” value read?
A: Its value is ““+++” (≥50 = +++)”.

Q: How did the “Peptide exchange” value turn out when “318 (GLINTGVLSV; listed as Homo sapiens) [compound 318]” was run?
A: Its value is ““++” (≥20% = ++)”.

Q: With “54 (SLLEQGKEPWMV; listed as Homo sapiens) [compound 54]” as the substance, how does the “Peptide exchange” value read?
A: Its value is ““+++” (≥50 = +++)”.

Q: “247 (VLLPNDLLEKV; listed as Homo sapiens) [compound 247]” was tested. Which “Peptide exchange” value did it give?
A: Its value is ““+++” (≥50 = +++)”.

Q: Which “Peptide exchange” value does the source give for “139 (SVMEVNSGIYRV; listed as Homo sapiens) [compound 139]” here?
A: Its value is ““+++” (≥50 = +++)”.

Q: With “389 (LLADVTHLL; listed as Homo sapiens) [compound 389]” as the substance, how does the “Peptide exchange” value read?
A: The value was ““++” (≥20% = ++)”.

Q: With “131 (FVPPVTVFPSL; listed as Homo sapiens) [compound 131]” as the substance, how does the “Peptide exchange” value read?
A: The value was ““++” (≥20% = ++)”.

Q: “538 (LLLAHIIAL; listed as Homo sapiens) [compound 538]” was tested. Which “Peptide exchange” value did it give?
A: The value was ““++” (≥20% = ++)”.

Q: How did the “Peptide exchange” value turn out when “94 (YLIDIKTIAI; listed as Homo sapiens) [compound 94]” was run?
A: Its value is ““++” (≥20% = ++)”.

Q: For “211 (LLWPGAALL; listed as Homo sapiens) [compound 211]”, which “Peptide exchange” value is on record?
A: Its value is ““++” (≥20% = ++)”.

Q: “143 (LLLDITPEI; listed as Homo sapiens) [compound 143]” was tested. Which “Peptide exchange” value did it give?
A: Its value is ““++++” (≥75% = ++++)”.

Q: For “385 (SLLEQGLVEA; listed as Homo sapiens) [compound 385]”, which “Peptide exchange” value is on record?
A: Its value is ““++” (≥20% = ++)”.

Q: With “560 (ALWDIETGQQTTT; listed as Homo sapiens) [compound 560]” as the substance, how does the “Peptide exchange” value read?
A: Its value is ““+++” (≥50 = +++)”.

Q: Which “Peptide exchange” value does the source give for “473 (AMATESILHFA; listed as Homo sapiens) [compound 473]” here?
A: Its value is ““+++” (≥50 = +++)”.

Q: With “22 (IMEENPGIFAV; listed as Homo sapiens) [compound 22]” as the substance, how does the “Peptide exchange” value read?
A: The value was ““+++” (≥50 = +++)”.

Q: With “489 (KMWEELPEVV; listed as Homo sapiens) [compound 489]” as the substance, how does the “Peptide exchange” value read?
A: Its value is ““+++” (≥50 = +++)”.

Q: For “544 (LLWDVPAPSL; listed as Homo sapiens) [compound 544]”, which “Peptide exchange” value is on record?
A: The value was ““+++” (≥50 = +++)”.

Q: With “529 (LLADELITV; listed as Homo sapiens) [compound 529]” as the substance, how does the “Peptide exchange” value read?
A: The value was ““+++” (≥50 = +++)”.

Q: How did the “Peptide exchange” value turn out when “296 (FMEGAIIYV; listed as Homo sapiens) [compound 296]” was run?
A: Its value is ““+++” (≥50 = +++)”.

Q: How did the “Peptide exchange” value turn out when “126 (VLAYFLPEA; listed as Homo sapiens) [compound 126]” was run?
A: Its value is ““++++” (≥75% = ++++)”.

Q: How did the “Peptide exchange” value turn out when “502 (RLLAQVPGL; listed as Homo sapiens) [compound 502]” was run?
A: The value was ““+++” (≥50 = +++)”.

Q: For “136 (YLADPSNLFVV; listed as Homo sapiens) [compound 136]”, which “Peptide exchange” value is on record?
A: Its value is ““+++” (≥50 = +++)”.

Q: How did the “Peptide exchange” value turn out when “251 (ALYTGFSILV; listed as Homo sapiens) [compound 251]” was run?
A: The value was ““++” (≥20% = ++)”.

Q: With “27 (ILADIVISA; listed as Homo sapiens) [compound 27]” as the substance, how does the “Peptide exchange” value read?
A: Its value is ““+++” (≥50 = +++)”.

Q: How did the “Peptide exchange” value turn out when “313 (VLFDDELLMV; listed as Homo sapiens) [compound 313]” was run?
A: The value was ““+++” (≥50 = +++)”.

Q: With “168 (KILDADIQL; listed as Homo sapiens) [compound 168]” as the substance, how does the “Peptide exchange” value read?
A: The value was ““++++” (≥75% = ++++)”.

Q: “227 (ALMNTLLYL; listed as Homo sapiens) [compound 227]” was tested. Which “Peptide exchange” value did it give?
A: Its value is ““++” (≥20% = ++)”.

Q: For “378 (ALGYFVPYV; listed as Homo sapiens) [compound 378]”, which “Peptide exchange” value is on record?
A: Its value is ““+++” (≥50 = +++)”.

Q: Which “Peptide exchange” value does the source give for “596 (ALLDQTKTLAESAL; listed as Homo sapiens) [compound 596]” here?
A: The value was ““+++” (≥50 = +++)”.

Q: Which “Peptide exchange” value does the source give for “166 (YLNHLEPPV; listed as Homo sapiens) [compound 166]” here?
A: Its value is ““+++” (≥50 = +++)”.

Q: For “308 (SQYSGQLHEV; listed as Homo sapiens) [compound 308]”, which “Peptide exchange” value is on record?
A: The value was ““+++” (≥50 = +++)”.

Q: Which “Peptide exchange” value does the source give for “587 (VMNDRLYAI; listed as Homo sapiens) [compound 587]” here?
A: Its value is ““+++” (≥50 = +++)”.

Q: With “21 (VLDELDMEL; listed as Homo sapiens) [compound 21]” as the substance, how does the “Peptide exchange” value read?
A: Its value is ““++” (≥20% = ++)”.

Q: For “229 (RLPGPLGTV; listed as Homo sapiens) [compound 229]”, which “Peptide exchange” value is on record?
A: Its value is ““++” (≥20% = ++)”.

Q: With “434 (KVSNSGITRV; listed as Homo sapiens) [compound 434]” as the substance, how does the “Peptide exchange” value read?
A: Its value is ““++” (≥20% = ++)”.

Q: How did the “Peptide exchange” value turn out when “428 (KLGHTDILVGV; listed as Homo sapiens) [compound 428]” was run?
A: The value was ““++” (≥20% = ++)”.

Q: How did the “Peptide exchange” value turn out when “526 (RLAEVGQYEQV; listed as Homo sapiens) [compound 526]” was run?
A: Its value is ““++” (≥20% = ++)”.

Q: How did the “Peptide exchange” value turn out when “380 (TLIEDEIATI; listed as Homo sapiens) [compound 380]” was run?
A: Its value is ““++” (≥20% = ++)”.

Q: With “151 (KILQQLVTL; listed as Homo sapiens) [compound 151]” as the substance, how does the “Peptide exchange” value read?
A: The value was ““+++” (≥50 = +++)”.

Q: With “588 (SLLPLSHLV; listed as Homo sapiens) [compound 588]” as the substance, how does the “Peptide exchange” value read?
A: Its value is ““+++” (≥50 = +++)”.

Q: “606 (ALWETEVYI; listed as Homo sapiens) [compound 606]” was tested. Which “Peptide exchange” value did it give?
A: The value was ““+++” (≥50 = +++)”.

Q: For “138 (YQYPRAILSV; listed as Homo sapiens) [compound 138]”, which “Peptide exchange” value is on record?
A: Its value is ““+++” (≥50 = +++)”.

Q: For “225 (SLLKVLPAL; listed as Homo sapiens) [compound 225]”, which “Peptide exchange” value is on record?
A: The value was ““+++” (≥50 = +++)”.

Q: How did the “Peptide exchange” value turn out when “523 (YQIPRTFTL; listed as Homo sapiens) [compound 523]” was run?
A: Its value is ““++” (≥20% = ++)”.

Q: How did the “Peptide exchange” value turn out when “198 (KTINKVPTV; listed as Homo sapiens) [compound 198]” was run?
A: The value was ““+++” (≥50 = +++)”.

Q: Which “Peptide exchange” value does the source give for “124 (ALYETELADA; listed as Homo sapiens) [compound 124]” here?
A: The value was ““++” (≥20% = ++)”.

Q: “238 (YLISFQTHI; listed as Homo sapiens) [compound 238]” was tested. Which “Peptide exchange” value did it give?
A: Its value is ““+++” (≥50 = +++)”.

Q: Which “Peptide exchange” value does the source give for “184 (YLMDINGKMWL; listed as Homo sapiens) [compound 184]” here?
A: The value was ““+++” (≥50 = +++)”.

Reference: patent US11230581B2, “Peptides and combination of peptides for use in immunotherapy against ovarian cancer and other cancers” (Immatics Biotechnologies GmbH, priority 2015, dated 2022)
